Reference: patent US20190055314A1 (ADAGENE, published 2019)

T1: full-length monkey CD137 on the cell surface (cynomolgus monkey, UniProt Q07011 24-179 (human entry))
T1 chain: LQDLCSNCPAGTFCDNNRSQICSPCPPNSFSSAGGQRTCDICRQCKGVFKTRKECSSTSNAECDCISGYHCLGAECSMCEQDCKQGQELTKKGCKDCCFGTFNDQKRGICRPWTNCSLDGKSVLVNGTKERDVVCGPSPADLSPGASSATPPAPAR

T2: CD27 overexpressed on HEK293F cells (UniProt P26842 20-260, limits assumed)
T2 construct: whole, on cells
T2 sequence (looked up): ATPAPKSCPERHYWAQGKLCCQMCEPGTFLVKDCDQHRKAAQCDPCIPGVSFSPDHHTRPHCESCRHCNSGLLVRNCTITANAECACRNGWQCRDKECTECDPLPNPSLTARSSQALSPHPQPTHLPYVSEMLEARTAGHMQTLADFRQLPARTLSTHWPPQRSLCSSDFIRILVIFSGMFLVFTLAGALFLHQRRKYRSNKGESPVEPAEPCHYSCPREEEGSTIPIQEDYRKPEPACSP

T3: OX40 overexpressed on HEK293F cells (UniProt P43489 29-277, limits assumed)
T3 construct: whole, on cells
T3 sequence (looked up): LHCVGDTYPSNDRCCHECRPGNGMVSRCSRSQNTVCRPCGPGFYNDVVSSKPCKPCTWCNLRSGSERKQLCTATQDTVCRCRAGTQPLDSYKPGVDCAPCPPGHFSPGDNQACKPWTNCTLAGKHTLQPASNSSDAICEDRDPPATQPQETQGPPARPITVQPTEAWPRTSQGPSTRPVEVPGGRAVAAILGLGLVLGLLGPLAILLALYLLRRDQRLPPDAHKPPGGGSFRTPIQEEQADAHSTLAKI

T4: GITR overexpressed on HEK293F cells (UniProt Q9Y5U5 26-241, limits assumed)
T4 construct: whole, on cells
T4 sequence (looked up): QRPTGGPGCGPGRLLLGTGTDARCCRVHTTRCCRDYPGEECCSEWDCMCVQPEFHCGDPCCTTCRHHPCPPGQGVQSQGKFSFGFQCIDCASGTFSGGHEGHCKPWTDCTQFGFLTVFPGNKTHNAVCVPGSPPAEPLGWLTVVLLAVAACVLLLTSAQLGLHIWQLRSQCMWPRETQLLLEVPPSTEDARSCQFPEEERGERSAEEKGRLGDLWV

T5: mouse CD137 fused with human FC fragment (mouse, UniProt P20334 24-178, limits assumed)
T5 construct: also called mouse CD137-Fc; not shown: human Fc fragment
T5 sequence: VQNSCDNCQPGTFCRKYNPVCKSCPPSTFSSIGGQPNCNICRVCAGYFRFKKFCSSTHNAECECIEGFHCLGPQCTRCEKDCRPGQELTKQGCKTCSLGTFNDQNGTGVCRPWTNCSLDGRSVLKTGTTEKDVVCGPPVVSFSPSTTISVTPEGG

T6: CD120a
T6 chain: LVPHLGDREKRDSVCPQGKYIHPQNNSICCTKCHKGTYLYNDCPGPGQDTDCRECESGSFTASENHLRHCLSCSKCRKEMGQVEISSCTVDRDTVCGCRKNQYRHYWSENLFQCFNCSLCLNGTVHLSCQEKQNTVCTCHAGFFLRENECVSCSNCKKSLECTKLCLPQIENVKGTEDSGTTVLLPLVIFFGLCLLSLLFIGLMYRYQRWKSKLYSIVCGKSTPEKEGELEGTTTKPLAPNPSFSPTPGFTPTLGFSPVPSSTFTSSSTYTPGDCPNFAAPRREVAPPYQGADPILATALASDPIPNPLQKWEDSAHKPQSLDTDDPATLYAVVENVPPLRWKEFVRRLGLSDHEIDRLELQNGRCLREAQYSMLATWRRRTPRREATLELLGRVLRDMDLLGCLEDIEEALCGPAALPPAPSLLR

T7: CD95
T7 chain: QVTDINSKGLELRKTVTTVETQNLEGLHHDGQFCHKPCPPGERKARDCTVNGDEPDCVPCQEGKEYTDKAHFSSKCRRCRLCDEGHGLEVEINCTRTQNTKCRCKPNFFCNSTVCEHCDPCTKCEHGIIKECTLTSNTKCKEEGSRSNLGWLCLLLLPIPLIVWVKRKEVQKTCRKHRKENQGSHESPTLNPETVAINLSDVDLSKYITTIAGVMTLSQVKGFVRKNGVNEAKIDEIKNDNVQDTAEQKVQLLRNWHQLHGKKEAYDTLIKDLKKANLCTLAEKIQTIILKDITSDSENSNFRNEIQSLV

T8: full-length mouse CD137 on the cell surface (mouse, UniProt P20334 24-178)
T8 sequence: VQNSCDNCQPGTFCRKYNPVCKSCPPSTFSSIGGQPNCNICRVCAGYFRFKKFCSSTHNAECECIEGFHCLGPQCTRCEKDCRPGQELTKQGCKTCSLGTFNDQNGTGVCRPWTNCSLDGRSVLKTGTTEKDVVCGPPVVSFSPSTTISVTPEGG


Experiments:
[1] = target: T1, full-length monkey CD137 on the cell …; test: flow cytometry, HEK293F cells expressing CD137 or mutant [Cont.]
Experimental: Transfected cells were washed in pre-chilled staining buffer (PBS supplemented with 2% FBS), then incubated with 100 nM test antibodies for 1 hr on ice. […] Samples were washed once with staining buffer prior to analysis by flow cytometry.
To determine the binding regions of the tested antibodies at amino acid residue level, a series of mutations (Table 5) were made at the extracellular domain of human CD137. These CD137 mutation plasmids were used to transfect HEK293F cells.

[2] = target: T2, CD27 overexpressed on HEK293F cells; test: flow cytometry, HEK293F cells expressing the receptor, antibody 100 nM [Cont.]
Experimental: (§1) The selectivity of antibodies for CD137 was evaluated using flow cytometry analysis of their binding ability to members of TNFR superfamily. The TNFRSF receptors including CD137, OX40, CD40, GITR and CD27 were transiently overexpressed on the surface of HEK293F cells. Transfected cells were washed in pre-chilled staining buffer (PBS supplemented with 2% FBS), then incubated with 100 nM test antibodies for 1 hr on ice. […] Samples were washed once with staining buffer prior to analysis by flow cytometry.

[3] = target: T3, OX40 overexpressed on HEK293F cells; test: as above
Experimental: as §1

[4] = target: T9, CD40 overexpressed on HEK293F cells (UniProt P25942 21-277, limits assumed); test: as above
T9 construct: whole, on cells
Experimental: as §1

[5] = target: T4, GITR overexpressed on HEK293F cells; test: as above
Experimental: as §1

[6] = target: T5, mouse CD137 fused with human FC fragment; test: ELISA, CD137-Fc coated in serial dilution, IgG 5 µg/mL, protein L-HRP
Experimental: (§2) A serial dilution of human, monkey or mouse CD137 fused with human FC fragment were prepared and used to coat the ELISA plate at 37° C. for 1 hr. After blocking, 100 ρt IgGs (5 μg/mL) were added and incubated at 37° C. for 1 hr. Plates were washed for three times and then incubated with HRP-conjugated protein L (1:2000 dilution) at 37° C. for 1 hr. Plates were washed again for three times and incubated with TMB substrate for 20 min at room temperature. Absorbance at 450 nm was measured after the reaction was stopped. The data was analyzed by Graphpad Prism 6 with nonlinear fitting.

CD120a = target: T6, CD120a; test: flow cytometry, HEK293F cells expressing the receptor [Cont.]
Experimental: as §1

CD95 = target: T7, CD95; test: as above
Experimental: as §1

[7] = target: T5, mouse CD137 fused with human FC fragment; test: ELISA, coated CD137-Fc
Experimental: as §2

[8] = target: T8, full-length mouse CD137 on the cell …; test: flow cytometry, HEK293F
Experimental: The affinity of antibodies were also assessed against human, monkey and mouse CD137 that are transiently expressed on the surface of HEK293F cells. Briefly, HEK293F cells were transfected with a plasmid expressing full-length human, monkey or mouse CD137 from a bicistronic IRES vector, EGFP was used to identify the transfected cells. After 48 hrs, the transfected cells were harvested and then washed once with cold FACS buffer (PBS supplemented with 1% BSA). […] The cells were washed once prior to analysis by flow cytometry (Beckman® CytoFlex).

[9] = target: T3, OX40 overexpressed on HEK293F cells; test: flow cytometry, HEK293F cells expressing the receptor, antibody 100 nM
Experimental: as §1

[10] = target: T9, CD40 overexpressed on HEK293F cells; test: as above
Experimental: as §1

[11] = target: T4, GITR overexpressed on HEK293F cells; test: as above
Experimental: as §1

[12] = target: T8, full-length mouse CD137 on the cell …; test: cell-based or functional assay

T9 sequence (P25942 21-277 limits assumed): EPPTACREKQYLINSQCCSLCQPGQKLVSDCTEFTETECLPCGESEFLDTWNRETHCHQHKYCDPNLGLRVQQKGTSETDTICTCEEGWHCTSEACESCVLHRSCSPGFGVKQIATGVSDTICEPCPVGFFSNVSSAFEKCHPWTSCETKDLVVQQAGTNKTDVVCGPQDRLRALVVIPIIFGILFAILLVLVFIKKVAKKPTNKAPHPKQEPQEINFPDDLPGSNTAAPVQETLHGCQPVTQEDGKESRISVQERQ

Row | % in upper right quadrant [1] | Mean [2] | Mean [3] | Mean [4] | Mean [5] | binding result [6] | Kd [7] | Kd [8] | Mean [9] | Mean [10] | Mean [11] | NFκB luciferase reporter, 293T cells with mouse CD137: EC50 (read off the curve) [12] | Binder | binding result (CD120a) | binding result (CD95)
1 | 42.4% | 13200 | 6780 | 7260 | 5980 | no binding |  |  |  |  |  |  | AG10059 (antibody, human IgG4 S228P, kappa, V domains shown) VH: EVQLVESGGGLVQPGGSLRLSCAASGYSITSGHYWAWIRQAPGKGLEWVSSISGYGSTTYYADSVKGRFTISRDNSKNTLYLQLNSLRAEDTAVYYCARGGSDAVLGDWFAYWGQGTLVTVSS VL: DIQLTQSPSSLSASVGDRVTITCRASQGIGSFLAWYQQKPGKAPKLLIYDASNLETGVPSRFSGSGSGTDFTLTISSLQPEDFATYYCQQGYYLWTFGQGTKVEIKR |  | 
2 |  |  |  |  |  |  | 0.3 nM | 10.1 nM | 189000 | 9300 | 18600 | ~3 nM | AG10058 (antibody, human IgG4 S228P, kappa, V domains shown) VH: EVQLVESGGGLVQPGGSLRLSCAASGFSLSTSGVGVGWIRQAPGKGLEWLALIDWDDDKYYSPSLKSRLTISRDNSKNTLYLQLNSLRAEDTAVYYCARGGSDTVLGDWFAYWGQGTLVTVSS VL: DIQLTQSPSSLSASVGDRVTITCRASQSVSPYLAWYQQKPGKAPKLLIYDASSLESGVPSRFSGSGSGTDFTLTISSLQPEDFATYYCQQGYSLWTFGQGTKVEIKR | no binding (tested: 100 nM (text paragraph 226)) | no binding (tested: 100 nM (text paragraph 226))
